Here are results for 1 molecule from patent publication US20170362330A1 (University of California, published 2017).

Test [1] addresses T1, cynomolgus monkey CD46 (cynomolgus monkey, UniProt A0A2K5WCL8 35-377).
T1 construct: whole, on cells; also called cyno monkey CD46; CHO-cynoCD46
T1 sequence: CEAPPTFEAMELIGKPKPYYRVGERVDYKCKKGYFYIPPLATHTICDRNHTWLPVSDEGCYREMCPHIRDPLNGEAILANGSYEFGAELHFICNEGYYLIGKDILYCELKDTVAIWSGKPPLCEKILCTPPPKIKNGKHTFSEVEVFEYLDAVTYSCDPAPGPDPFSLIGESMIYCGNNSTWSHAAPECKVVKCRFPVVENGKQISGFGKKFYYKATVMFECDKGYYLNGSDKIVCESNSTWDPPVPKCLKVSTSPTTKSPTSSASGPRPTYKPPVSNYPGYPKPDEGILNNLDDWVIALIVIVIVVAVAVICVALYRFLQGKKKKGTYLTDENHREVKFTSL
Nature of the test: FACS on CHO cells transfected with cynomolgus monkey CD46, 4 °C overnight, MFI curve fit. The protocol:
(§1) FIGS. 6. YS5 KD measurement on CHO cells transfected with cynomolgus monkey CD46. YS5 was incubated with CHO-cynoCD46 cells at 4° C. overnight and binding analyzed by FACS.

Test [2] addresses T1, cynomolgus monkey CD46. Nature of the test: FACS on CHO-cynoCD46 cells, 4 C overnight, MFI against antibody concentration. The protocol:
as §1

Test [3] concerns the target T2, recombinant Fc fusion protein composed of the Sushi domain 1 and 2 of human CD46 (human, UniProt P15529 35-159).
T2 construct: domain: Sushi domain 1 and 2; Produced in HEK293 cells, purified by protein A; also called CD46-Fc fusion; recombinant CD46-Fc fusion protein; not shown: Fc part
T2 sequence (looked up): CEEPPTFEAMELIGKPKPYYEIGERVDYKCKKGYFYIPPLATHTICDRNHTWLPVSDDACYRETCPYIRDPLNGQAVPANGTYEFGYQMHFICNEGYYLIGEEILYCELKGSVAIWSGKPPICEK
The test is described as follows: phage and yeast display selection and FACS screening with recombinant CD46-Fc fusion. The text has this: To identify novel anti-human CD46 antibodies, a recombinant Fc fusion protein composed of the Sushi domain 1 and 2 of human CD46 was created. As complement elements bind predominantly to domain 3 and 4, the choice of domain 1 and 2 minimize selection of antibodies that could potently interfere with normal complement function. This CD46-Fc fusion was produced and purified from transfected HEK293 cells by protein A affinity chromatography. For human antibody selection, a 5×10⁹ member phagemid display library was created using cDNAs pooled from peripheral blood mononuclear cells of 426 healthy human donors, and the library was selected the recombinant CD46-Fc fusion protein. Following three rounds of selection, binding phagemid were screened by FACS and sequenced. In parallel, an alternatively strategy was employed that involve first selecting the library on live tumor cells followed by transferring the output from round 1 phagemid selection into a yeast surface display vector, and then FACS-based selection using low concentration ligands to enrich high affinity binders to the recombinant CD46-Fc fusion protein. The resulting antibodies bind with high affinity to both live tumor cells and the recombinant human CD46 protein.

B1: YS5 (antibody, V domains shown)
VH: QVQLVQSGGGVVQPGRSLRLACAASGLTVNNYAMHWVRQAPGKGLEWVAVISYDGNNKYYADSVKGRFTISRDNSKNTLYLQMNSLRAEDTAVYYCAKGGGYFDLWGRGTLVTVSS
VL: QSVLTQPPSVSGAPGQRVTISCTGSSSNIGAGYDVHWYQQLPGTAPKLLIYGNNNRPSGVPDRFSGSKSGTSASLAITGLQAEDEADYYCSSYTSGTWLFGGGTKLTVL
notes: Human scFv from phage/yeast display, converted into full human IgG1; also called YS5 IgG1; anti-CD46 antibody (YS5)
Broadly, the Kd is the constant that tells how readily two partners part at equilibrium. The EC50 (read off the curve) is the concentration needed to bring the measured effect to its halfway point. B1 displayed a Kd in the test with cynomolgus monkey CD46 [1] of 1.95 nM. For the same molecule, the “EC50 (read off the curve)” value in the test with cynomolgus monkey CD46 [2] is approximately 2 nM. Moreover, the binding result in test [3] is recorded as “binds”.
